Experimental data reported in patent US20240327505A1 (published 2024).
Where a chain is given by its changes, count along the chain named.

Legend:
[1] = biological target: T1, SARS-CoV-2 Spike (S) trimer (SARS-CoV-2, UniProt P0DTC2 16-1213); test: ELISA, S trimer coated, antibody at 1:50 dilution
[2] = biological target: SARS-CoV-2 Spike (S) trimer (SARS-CoV-2, UniProt P0DTC2 16-1213); test: ELISA, S trimer coated, antibody at 1:50 dilution; remark: listed apart in the source
[3] = biological target: T1, SARS-CoV-2 Spike (S) trimer
[4] = biological target: SARS-CoV-2 Nucleocapsid (N) protein (SARS-CoV-2, UniProt P0DTC9 1-419)
[5] = biological target: SARS-CoV-2 Envelope (E) protein (SARS-CoV-2, UniProt P0DTC4 1-75); test: ELISA, Envelope
[6] = biological target: SARS-CoV-2 spike S2 protein (SARS-CoV-2, UniProt P0DTC2 686-1213)
[7] = biological target: SARS-CoV-2 spike S2 protein (SARS-CoV-2, UniProt P0DTC2 686-1213); remark: listed apart in the source
[8] = biological target: SARS-CoV-2 Spike (S) trimer (SARS-CoV-2, UniProt P0DTC2 16-1213); test: ELISA on coated S trimer, 1:50

B1: AB-009271 (antibody, V domains shown)
VH: EVQLVESGGGLIQPGGSLRLSCAASGFIVSSNYMSWVRQAPGKGLEWVSVIYSGGSTYYADSVKGRFTISRDNSKNTLYLQMNSLRAEDTAVYYCARDYGDFYFDYWGQGTLVTVSS
VL: EIVMTQSPATLSVSPGERATLSCRASQSVSSNLAWYQQKPGQAPRLLIYGASTRATGIPARFSGSGSGTEFTLTISSLQSEDFAVYYCQQYYNWPRTFGQGTKVEIK
Q: With B1 as the binder, how does the “Optical Density (OD; 450 nm)” value [1] read?
A: 2.94 OD 450 nm

B2: AB-009610 (antibody, V domains shown)
VH: QVQLVQSGAEVKKPGSSVKVSCKASGGTFSNYAISWVRQAPGQGLEWMGRIIPILGIANYAQKFQGRVTITADKSTSTAYMELSSLRSEDTAVYYCATTPYYYDSSGYYLDYWGQGTLVTVSS
VL: not shown
Q: How did the “Optical Density (OD; 450 nm)” value [1] turn out when B2 was run?
A: 2.02 OD 450 nm

B3: AB-009613 (antibody, V domains shown)
VH: B1 VH with I28T
VL: not shown
Q: Which “Optical Density (OD; 450 nm)” value [1] does the source give for B3 here?
A: 2.47 OD 450 nm

B4: AB-009629 (antibody, V domains shown)
VH: QVQLQQWGAGLLKPSETLSLTCAVYGGSFSGYYWSWIRQPPGKGLEWIGEINHSGSTNYNPSLKSRVTISVDTSKNQFSLKLSSVTAADTAVYFCARGTGIAVAGVLVNFYYCYYMDVWGKGTTVTVSS
VL: SSELTQDPAVSVALGQTVRITCQGDSLRSYYASWYQQKPGQAPVLVIYGKNNRPSGIPDRFSGSSSGNTASLTITGAQAEDEADYYCNSRDSSGNHLVFGGGTKLTVL
Q: Which “Optical Density (OD; 450 nm)” value [2] does the source give for B4 here?
A: 0.114 OD 450 nm

B5: AB-010020 (antibody, V domains shown)
VH: QMQLVQSGPEVKKPGTSVKVSCKASGFTFTSSAVQWVRQARGQRLEWIGWIVVGSGNTNYAQKFQERVTITRDMSTSTAYMELSSLRSEDTAVYYCAAPACSSTSCYDGFDIWGQGTMVTVSS
VL: not shown
Q: Which EC50 [3] does the source give for B5 here?
A: 0.15 nM

B6: AB-010021 (antibody, V domains shown)
VH: B5 VH with P99V, A100Y, S103G, T104G, Y107L, G109A
VL: not shown
Q: Which EC50 [3] does the source give for B6 here?
A: 0.23 nM

B7: AB-009190 (antibody, V domains shown)
VH: QVQLVESGGGVVQPGRSLRLSCAASGFTFSSYAMHWVRQAPGKGLEWVAVISYDGSNKYYADSVKGRFTISRDNSKNTLYLQMNSLRAEDTAVYYCARLNGDAYYYYGMDVWGQGTTVTVSS
VL: not shown
Q: B7 was tested. Which Kd [4] did it give?
A: 54.1 nM

Q: And the koff [4]?
A: 0.000947 s⁻¹

Q: And the kon [4]?
A: 17500 M⁻¹ s⁻¹

Q: What about the “OD 450 nm” value [5] of the same binder?
A: 0.469 OD

B8: AB-009358 (antibody, V domains shown)
VH: QVHLVQSGAEVKKPGASVKISCKASGYTFTSYYVHWVRQAPGQGLEWMGIIKPSGAGTIYAQKFQGRVTMTRDTSTSTVYMELSSLISEDTAVYYCARGGGVTDRDYWGQGTLVTVSS
VL: QSALTQEASVSATVGQKVTLSCTGNTNNIGGYAVGWHQQISHGAPKTVMFGNSLPSGIPDRFSGSKSGTTASLIISGLQPEDEADYYCSTWDSSLGAVLFGGGTKLTVL
Q: B8 was tested. Which Kd [6] did it give?
A: 478 nM

Q: And the koff [6]?
A: 0.00176 s⁻¹

Q: And the kon [6]?
A: 3690 M⁻¹ s⁻¹

B9: AB-009325 (antibody, V domains shown)
VH: QVQLVESGGGVVQPGRSLRLSCAASGFTFNNYGMHWVRQAPGKGLEWVALISYEGSLKYYGDSVRGRFTVSRDNSRNTLYLQMNSLRVDDTAVYYCAKAGGIFAIHYYGMNVWGQGTTVTVSS
VL: QSVLTQPPSVSAAPGQKVTISCSGSSSNIGKNYVSWYRQFPGTAPKLLIYDNNKRPSGIPDRFSGSKSDTSATLGITGLQTGDEADYYCVTWDSSLSAGVFGGGTKLTVL
Q: B9 was tested. Which Kd [7] did it give?
A: 0.0467 nM

Q: And the koff [7]?
A: 2.77e-07 s⁻¹

Q: What about the kon [7] of the same binder?
A: 5930 M⁻¹ s⁻¹

Q: What about the “OD 450 nm” value [5] of the same binder?
A: 0.32 OD

Q: And the “OD 450 nm” value [8]?
A: 1.39 OD
